Holding throughout (assay): co-IP; HEK293 cells co-transfected with AnkB-220-HA (WT or mutant) and NrCAM plasmids in equimolar amounts; Brij98 lysate diluted in PBS, 0.1% TritonX-100; AnkB-HA precipitated with mouse anti-HA on Protein A/G magnetic beads overnight at 4 °C; blot for NrCAM, reprobed with anti-HA; NrCAM/AnkB ratio by densitometry
The target of assay [1] is AnkB-220-HA A373V (maternally inherited ASD missense mutation) (human).
In assay [2] the target is AnkB-220-HA R308E (human).
Assay [3] has as its target AnkB-220-HA R297E (human).
The target in assay [4] is AnkB-220-HA H374W (human).
For assay [5], the target named is AnkB-220-HA H374A (human).

Consider “Neuron-glial related L1-CAM (NrCAM), mouse, WT (natural protein)”, for which, in assay [1], the fold increase of co-immunoprecipitation compared to WT AnkB was found to be 1.7 fold. Besides, the percent decrease of co-immunoprecipitation compared to WT AnkB in assay [2] was 90%; in assay [3], 60%; in assay [4], 80%; in assay [5], 80%.

Values taken from PMC12681835.
